Earlier results, collected in publication PMC8880779 (International Journal of Molecular Sciences, 2022).

Experiments:
mouse model of AD = test system: mouse model of AD; parameters: method as in PMID 29164613
cell-based AD model = test system: cell-based AD model; parameters: method as in PMID 23519124

B1: CaM-like skin protein: present at concentrations ranging between 3 and 6 nM in the human cerebrospinal fluid (protein, UniProt Q9NZT1 2-146, looked up)
Calmodulin-like protein 5: AGELTPEEEAQYKKAFSAVDTDGNGTINAQELGAALKATGKNLSEAQLRKLISEVDSDGDGEISFQEFLTAAKKARAGLEDLQVAFRAFDQDGDGHITVDELRRAMAGLGQPLPQEELDAMIREADVDQDGRVNYEEFARMLAQE
- protection against spatial learning impairment (mouse model of AD): affords efficient protection against spatial learning impairment
- inhibition of neuronal death (cell-based AD model): inhibits neuronal death in a cell-based AD model
